Results reported in patent US20260242485A1 (LEPU BIOPHARMA, published 2026).

Assays:
[1] = biological target: T1, human CCR8 expressed on cells (human, UniProt P51685 1-355); experiment: flow cytometry, HEK293 hCCR8 cells (HEK293 NC parental cells as control), PE anti-human IgG Fc, geometric mean
T1 construct: whole, on cells; also called hCCR8; HEK293 hCCR8 cell line
Description: (§1) Briefly, HEK293 hCCR8 cell line, CHO-K1 mCCR8 cell line and the parental cell lines were first incubated with serially diluted 194A1G9 at 4° C. for 30 mins. After washing by FACS buffer, PE Goat anti-Human IgG Fc Secondary Antibody (eBioscience™, Invitrogen) was added to each well and incubated at 4° C. for 30 mins. Samples were washed twice with FACS staining buffer. The mean florescence intensity (MFI) of PE was evaluated by MACSQuant Analyzer 16.

[2] = biological target: T2, mouse CCR8 expressed on CHO-K1 cells (mouse, UniProt P56484 1-353); experiment: flow cytometry, CHO-K1 mCCR8 cells (CHO-K1 NC parental cells as control), PE anti-human IgG Fc, geometric mean
T2 construct: whole, on cells; also called mCCR8; murine CCR8
T2 sequence (looked up): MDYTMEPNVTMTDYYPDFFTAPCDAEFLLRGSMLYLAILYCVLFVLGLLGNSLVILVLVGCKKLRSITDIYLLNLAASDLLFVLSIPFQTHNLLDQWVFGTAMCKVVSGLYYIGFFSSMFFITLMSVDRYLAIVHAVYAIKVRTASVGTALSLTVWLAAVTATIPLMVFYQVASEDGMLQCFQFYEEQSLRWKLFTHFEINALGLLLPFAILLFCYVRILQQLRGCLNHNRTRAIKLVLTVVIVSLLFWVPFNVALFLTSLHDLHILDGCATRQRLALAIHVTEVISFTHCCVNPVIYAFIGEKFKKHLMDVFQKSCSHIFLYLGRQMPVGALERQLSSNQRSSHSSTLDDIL
Description: as §1

T1 sequence (P51685 whole entry): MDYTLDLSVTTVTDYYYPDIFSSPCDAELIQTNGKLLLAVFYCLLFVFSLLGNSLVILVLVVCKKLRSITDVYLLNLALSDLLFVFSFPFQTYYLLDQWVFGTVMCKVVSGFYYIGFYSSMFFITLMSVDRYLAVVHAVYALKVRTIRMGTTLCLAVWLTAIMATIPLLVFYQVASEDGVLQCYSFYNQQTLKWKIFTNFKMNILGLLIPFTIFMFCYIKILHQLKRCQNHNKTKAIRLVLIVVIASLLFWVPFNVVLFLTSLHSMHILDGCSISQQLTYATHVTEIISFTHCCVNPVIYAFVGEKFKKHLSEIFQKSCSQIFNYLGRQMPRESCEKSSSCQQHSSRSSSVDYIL

EC50 (read off the curve) [1]: ~0.1 nM | EC50 (read off the curve) [2]: ~5 nM
B1: 194A1G9 (antibody, V domains shown)
VH: QVQLQQSGTELVRPGASVTLSCKASGYTFTDHEMYWVKQTPVHGLEWIGAVDPETGSTAYNQKFKVKAILTADKSSSTAYMELRSLTSEDSAVYYCTSRLRRAMDNWGHGTSVTVSS
VL: DVVLTQTPLSLPVSPGDQASISCRSSQTLLHSSGNTYLHWFLQKPGQSPKLLIYKVSNRFSGVPDRFSGSGSGTDFTLKISRVEAEDLGVYFCSQNTHVPWTFGGGTKLEIK
notes: Detected with anti-human IgG Fc, so with a human Fc; also called surrogate anti-CCR8 antibody 194A1G9; in house anti-mCCR8 clone 194A1G9
